B1: Bone marrow stromal antigen 2 (Homo sapiens), Q10589 (parent)
chain: MASTSYDYCRVPMEDGDKRCKLLLGIGILVLLIIVILGVPLIIFTIKANSEACRDGLRAVMECRNVTHLLQQELTEAQKGFQDVEAQAATCNHTVMALMASLDAEKAQGQKKVEELEGEITTLNHKLQDASAEVERLRRENQVLSVRIADKKYYPSSQDSSSAAAPQLLIVLLGLSALLQ
partner: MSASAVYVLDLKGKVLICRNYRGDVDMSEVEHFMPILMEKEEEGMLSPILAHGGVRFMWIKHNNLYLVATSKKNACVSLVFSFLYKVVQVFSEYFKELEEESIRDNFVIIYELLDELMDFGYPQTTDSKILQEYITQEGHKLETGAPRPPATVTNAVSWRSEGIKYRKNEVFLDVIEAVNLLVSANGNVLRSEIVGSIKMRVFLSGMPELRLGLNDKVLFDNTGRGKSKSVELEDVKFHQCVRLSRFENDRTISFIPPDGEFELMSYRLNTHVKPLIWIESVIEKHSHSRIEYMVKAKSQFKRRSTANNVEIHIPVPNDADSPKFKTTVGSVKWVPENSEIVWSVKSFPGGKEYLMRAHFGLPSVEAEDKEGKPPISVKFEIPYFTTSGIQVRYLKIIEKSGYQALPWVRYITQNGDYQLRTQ
B2: Protein Vpu (Human immunodeficiency virus type 1 group M subtype B (isolate SF162)), P19554 (parent)
chain: MQPLQILAIVALVVAAIIAIVVWTIVYIEYRKILRQRKIDRLIDRITERAEDSGNESEGDQEELSALVERGHLAPWDVDDL
B3: AP-1 complex subunit mu-1 (Mus musculus), P35585 (parent)
chain: B1 partner

Variants of: B1
Conditions: with ap1m1_mouse Ap1m1, P35585

Variant	effect of a mutation on the interaction
Y6A;Y8A	disrupting interaction
V11A	disrupting interaction
Y8A	disrupting interaction
Y6A	disrupting interaction

Variants of: B2
Conditions: with fbw1a_human BTRC

Variant	effect of a mutation on the interaction
S53N;S57N	decreasing interaction

Variants of: B3
Conditions: with bst2_human BST2, Q10589

Variant	effect of a mutation on the interaction
D174A	disrupting interaction

Variants of: B3
Conditions: with tgon3_rat Ttgn1, P19814
Sequence of tgon3_rat Ttgn1, P19814 (P19814 whole entry): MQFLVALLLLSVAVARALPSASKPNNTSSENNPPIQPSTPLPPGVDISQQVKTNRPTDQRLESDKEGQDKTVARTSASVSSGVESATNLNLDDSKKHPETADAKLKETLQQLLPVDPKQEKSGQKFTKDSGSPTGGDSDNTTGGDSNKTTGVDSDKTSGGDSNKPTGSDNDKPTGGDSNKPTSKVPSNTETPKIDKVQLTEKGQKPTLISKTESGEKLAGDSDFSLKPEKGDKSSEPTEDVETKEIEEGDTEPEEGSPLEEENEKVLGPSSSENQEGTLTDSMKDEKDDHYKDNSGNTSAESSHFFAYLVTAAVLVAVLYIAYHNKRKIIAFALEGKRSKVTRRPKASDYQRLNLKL

Variant	effect of a mutation on the interaction
D174A	disrupting interaction

— IntAct's records for PubMed 24843023
